# Changes are numbered by the printed parent chain. In names and notes the source's numbering stands.
# T1: human CEACAM1 (human, UniProt P13688 35-526)
# T1 construct: whole, on cells
# T1 sequence (looked up): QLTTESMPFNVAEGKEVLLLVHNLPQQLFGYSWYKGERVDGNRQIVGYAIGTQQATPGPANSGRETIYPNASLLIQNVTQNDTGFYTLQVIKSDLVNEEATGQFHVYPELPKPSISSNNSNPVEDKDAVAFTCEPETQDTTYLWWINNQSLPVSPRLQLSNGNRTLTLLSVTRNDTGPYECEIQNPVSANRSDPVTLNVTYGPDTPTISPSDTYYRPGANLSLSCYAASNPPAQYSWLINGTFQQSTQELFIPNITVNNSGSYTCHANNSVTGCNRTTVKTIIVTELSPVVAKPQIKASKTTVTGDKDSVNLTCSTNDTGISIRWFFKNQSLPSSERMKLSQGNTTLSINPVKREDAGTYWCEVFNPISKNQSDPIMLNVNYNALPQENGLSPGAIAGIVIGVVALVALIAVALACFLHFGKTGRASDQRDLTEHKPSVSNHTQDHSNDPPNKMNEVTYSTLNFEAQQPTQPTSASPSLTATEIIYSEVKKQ
# T2: human CEACAM3 (human, UniProt P40198 35-252)
# T2 construct: whole, on cells
# T2 sequence (looked up): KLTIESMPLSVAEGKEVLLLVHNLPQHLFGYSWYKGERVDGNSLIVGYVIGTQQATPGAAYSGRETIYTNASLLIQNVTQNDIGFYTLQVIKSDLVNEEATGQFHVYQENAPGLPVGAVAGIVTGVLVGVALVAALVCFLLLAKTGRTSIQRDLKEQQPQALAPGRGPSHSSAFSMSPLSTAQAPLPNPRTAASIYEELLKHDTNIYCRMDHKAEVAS
# T3: human CEACAM4 (human, UniProt O75871 36-244)
# T3 construct: whole, on cells
# T3 sequence (looked up): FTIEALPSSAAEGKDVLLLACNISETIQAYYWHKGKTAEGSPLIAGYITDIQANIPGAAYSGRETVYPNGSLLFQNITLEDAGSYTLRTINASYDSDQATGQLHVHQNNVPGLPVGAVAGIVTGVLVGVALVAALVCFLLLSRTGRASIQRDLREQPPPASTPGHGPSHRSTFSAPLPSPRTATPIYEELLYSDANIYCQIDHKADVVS
# T4: human CEACAM6 (human, UniProt P40199 35-320)
# T4 construct: whole, on cells; also called CD66c
# T4 sequence (looked up): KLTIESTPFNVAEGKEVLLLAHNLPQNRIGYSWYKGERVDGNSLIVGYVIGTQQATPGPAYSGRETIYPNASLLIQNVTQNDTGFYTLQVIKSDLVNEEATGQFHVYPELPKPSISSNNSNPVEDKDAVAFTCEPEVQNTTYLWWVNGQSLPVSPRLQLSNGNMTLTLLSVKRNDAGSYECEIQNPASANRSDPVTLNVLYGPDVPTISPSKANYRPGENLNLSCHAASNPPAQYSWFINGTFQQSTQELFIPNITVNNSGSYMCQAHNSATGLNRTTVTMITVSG
# T5: human CEACAM8 (human, UniProt P31997 35-320)
# T5 construct: whole, on cells
# T5 sequence (looked up): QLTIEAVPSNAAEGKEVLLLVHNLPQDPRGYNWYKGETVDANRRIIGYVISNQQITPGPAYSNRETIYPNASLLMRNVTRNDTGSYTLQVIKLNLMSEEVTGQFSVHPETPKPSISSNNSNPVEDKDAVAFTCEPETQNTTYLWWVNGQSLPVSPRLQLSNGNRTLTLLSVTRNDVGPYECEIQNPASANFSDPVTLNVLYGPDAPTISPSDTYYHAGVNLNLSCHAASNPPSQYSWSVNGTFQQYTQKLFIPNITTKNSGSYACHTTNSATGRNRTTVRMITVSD
# B1: AB17L3-1/N (bispecific antibody, human IgG1, kappa, lambda, L234A L235A)
# heavy: EVQLVESGGGLVQPGGSLKLSCAASGFTFNTYAMNWVRQAPGKGLEWVGRIRSKYNNYATYYADSVKDRFTISRDDSKNTAYLQMNSLKTEDTAVYYCVRHGNFGNSYVSWFAYWGQGTLVTVSSASTKGPSVFPLAPSSKSTSGGTAALGCLVKDYFPEPVTVSWNSGALTSGVHTFPAVLQSSGLYSLSSVVTVPSSSLGTQTYICNVNHKPSNTKVDKRVEPKSCDKTHTCPPCPAPEAAGGPSVFLFPPKPKDTLMISRTPEVTCVVVDVSHEDPEVKFNWYVDGVEVHNAKTKPREEQYNSTYRVVSVLTVLHQDWLNGKEYKCKVSNKALAAPIEKTISKAKGQPREPQVYTLPPSREEMTKNQVSLTCLVKGFYPSDIAVEWESNGQPENNYKTTPPVLDSDGSFFLYSKLTVDKSRWQQGNVFSCSVMHEALHNHYTQKSLSLSPG
# light 1: EIVLTQSPATLSLSPGERATLSCRASQSVNSNLNWYQQKPGQAPRLLIYHGSNRATGIPARFSGSGSGTDFTLTISSLEPEDFAVYYCQQFDYFKEHNTFGQGTKVEIKRTVAAPSVFIFPPSDEQLKSGTASVVCLLNNFYPREAKVQWKVDNALQSGNSQESVTEQDSKDSTYSLSSTLTLSKADYEKHKVYACEVTHQGLSSPVTKSFNRGEC
# light 2: QTVVTQEPSLTVSPGGTVTLTCRSSTGAVTTSNYANWFQQKPGQAPRGLIGGTNKRAPGTPARFSGSLLGGKAALTLSGAQPEDEAEYYCALWYKQRWVFGGGTKLTVLGQPKAAPSVTLFPPSSEELQANKATLVCLISDFYPGAVTVAWKADSSPVKAGVETTTPSKQSNNKYAASSYLSLTPEQWKSHRSYSCQVTHEGSTVEKTVAPTECS
# notes: Kappa-lambda body, lead optimization wave 1
# B2: AB1L3-1/N (bispecific antibody, human IgG1, kappa, lambda, L234A L235A)
# heavy: B1 heavy
# light 1: B1 light 1 with Y93L, F94R, K95H
# light 2: B1 light 2
# notes: Kappa-lambda body: common heavy chain (hIgG1 L234A+L235A+P329A), kappa CEA light chain AB1, lambda CD3 light chain L3-1 (1A4); also called parental KL bispecific antibody
# B3: AB72L3-1/N (bispecific antibody, human IgG1, kappa, lambda, L234A L235A)
# heavy: B1 heavy
# light 1: B1 light 1 with G51S, S52T, A55P, T56R, H97Y
# light 2: B1 light 2
# notes: Kappa-lambda body, lead optimization wave 2
# B4: AB73L3-1/N (bispecific antibody, human IgG1, kappa, lambda, L234A L235A)
# heavy: B1 heavy
# light 1: B1 light 1 with G51S, S52N, A55P, T56H, K95R, H97Y
# light 2: B1 light 2
# notes: as for B3
# B5: AB71L3-1/N (bispecific antibody, human IgG1, kappa, lambda, L234A L235A)
# heavy: B1 heavy
# light 1: B1 light 1 with G51S, A55P, T56H
# light 2: B1 light 2
# notes: as for B3
# Target: T1, human CEACAM1
# Experiment: flow cytometry, transfected PEAK cells, 10 mcg/ml
# Excerpt: (§1) Vectors encoding the full-length version of human CEACAM 1, 3, 4, 5, 6, 7, 8, 18, 19, 20 and […] are used to express these proteins at the surface of PEAK and/or CHO cells as described in Example 1. Similarly, vectors encoding the full-length version of cyno CEACAM 5 and 6 are also used to express these proteins at the surface of PEAK and/or CHO cells. Non-transfected PEAK and/or CHO cells are used as negative control. Cells are harvested, counted, checked for viability and resuspended at 3×10⁶ cells/ml in FACS buffer (PBS 2% BSA, 0.1% NaN₃). 100 μl of the cell suspension are distributed in V-bottom 96-well plates (3×10⁵ cells/well). The supernatant is removed by centrifugation 3 minutes at 4° C., 1300 rpm and the cells incubated for 15 minutes at 4° C. with increasing concentrations of the antibody according to the invention. The antibodies carrying the anti-CEACAM5 arms to test are diluted in FACS buffer and the concentration range is 30 pM-500 nM. Cells are washed twice with cold FACS buffer and re-incubated for further 15 minutes at 4° C. with a compatible anti-human IgG secondary antibody. Cells are washed twice with cold FACS buffer and resuspended in 300 μl FACS buffer with 1:1500-diluted TOPRO-3 (Invitrogen). Fluorescence is measured using a FACSCalibur™ (BD Biosciences) or a Cytoflex Platform (Beckman Coulter). Dose-response binding curves are fitted using GraphPad Prism8 software. In the same manner, CEACAM1, CEACAM6 and other CEACAMs can be characterized.
# (§2) For the bispecific antibodies AB17L3-1/N, AB71L3-1/N, AB72L3-1/N, AB73L3-1/N the MFI measured for binding to CEACAM5 transfected cells was found between 29000 and 41000 (Table 2). In contrast MFI found by using PEAK cells transfected with CEACAM 1,3,4,6,8 were found below 1000 with the only exception of a strong signal for AB72L3-1/N on CEACAM8 transfected cells. When MFI values obtained on transfected cells expressing any given CEACAM are divided by the values obtained on WT PEAK cells, “factors to PEAK WT” can be calculated (Table 3).
row,Binder,MFI [MFI]
1,B1,652
2,B2,441
3,B3,652
4,B4,542
5,B5,451

# Target: T2, human CEACAM3
# Experiment: flow cytometry, transfected PEAK cells, 10 mcg/ml
# Excerpt: as §1, §2
row,Binder,MFI [MFI]
1,B1,633
2,B2,358
3,B3,474
4,B4,465
5,B5,358

# Target: T3, human CEACAM4
# Experiment: flow cytometry, transfected PEAK cells, 10 mcg/ml
# Excerpt: as §1, §2
row,Binder,MFI [MFI]
1,B1,431
2,B2,330
3,B3,402
4,B4,352
5,B5,323

# Target: T4, human CEACAM6
# Experiment: flow cytometry, transfected PEAK cells, 10 mcg/ml
# Excerpt: as §1, §2
row,Binder,MFI [MFI]
1,B1,541
2,B2,373
3,B3,562
4,B4,490
5,B5,420

# Target: T5, human CEACAM8
# Experiment: flow cytometry, transfected PEAK cells, 10 mcg/ml
# Excerpt: as §1, §2
row,Binder,MFI [MFI]
1,B1,411
2,B2,343
3,B3,6290
4,B4,401
5,B5,391

# From patent US20230136228A1 (LAMKAP BIO ALPHA, published 2023)
